Compound in the data set: c1csc(SSc2nccs2)n1
The experiment in a line: Covalent inhibition of FBPase WT (unknown origin) assessed as Vmax measured at 45 mins. The note with it: Homo sapiens.

Data on one protein can be found in ChEMBL document CHEMBL4706520, “Development of disulfide-derived fructose-1,6-bisphosphatase (FBPase) covalent inhibitors for the treatment of type 2 diabetes” (Eur J Med Chem, 2020).

B1: Fructose-1,6-bisphosphatase 1 (Homo sapiens), P09467 (protein)
chain: MADQAPFDTDVNTLTRFVMEEGRKARGTGELTQLLNSLCTAVKAISSAVRKAGIAHLYGIAGSTNVTGDQVKKLDVLSNDLVMNMLKSSFATCVLVSEEDKHAIIVEPEKRGKYVVCFDPLDGSSNIDCLVSVGTIFGIYRKKSTDEPSEKDALQPGRNLVAAGYALYGSATMLVLAMDCGVNCFMLDPAIGEFILVDKDVKIKKKGKIYSLNEGYARDFDPAVTEYIQRKKFPPDNSAPYGARYVGSMVADVHRTLVYGGIFLYPANKKSPNGKLRLLYECNPMAYVMEKAGGMATTGKEAVLDVIPTDIHQRAPVILGSPDDVLEFLKVYEKHSAQ
Regarding B1, the Vmax is 4 U/mg.
